From article PMC11398408 (bioRxiv, 2024)

B1: RING-UBL (designed binder)
chain: SLTAQQSSLIREDKSNAKLWNEVLASLKDRPASGSPFQLFLSKVEETFQCICCQELVFRPITTVCQHNVCKDCLDRSFRAQVFSCPACRYDLGRSYAMQVNQPLQTVLNQLFPGYGNGRGGSSGGSSGGSSGGSSMWIQVRTMDGRQTHTVDSLSRLTKVEELRRKIQELFHVEPGLQRLFYRGKQMEDGHTLFDYEVRLNDTIQLLVRQS
B2: UBOX-UBL (designed binder)
chain: AEIDYSDAPDEFRDPIMDTLMTDPVRLPSGTVMDRSIILRHLLNSPTDPFNRQTLTESMLEPVPELKEQIQAWMREKQNSDHGGSSGGSSGGSSMWIQVRTMDGRQTHTVDSLSRLTKVEELRRKIQELFHVEPGLQRLFYRGKQMEDGHTLFDYEVRLNDTIQLLVRQS

Molecular target: UBE2D1 (UniProt P51668 1-147)
Sequence (P51668 whole entry): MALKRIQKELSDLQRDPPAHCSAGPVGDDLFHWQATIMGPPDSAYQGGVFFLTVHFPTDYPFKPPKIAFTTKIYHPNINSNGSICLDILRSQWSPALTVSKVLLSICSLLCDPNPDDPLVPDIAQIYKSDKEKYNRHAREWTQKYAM
Assay: ITC

| Binder | Kd [µM] | stoichiometry N |
| --- | --- | --- |
| B1 | 3.1 ± 0.7 | ~1 |
| B2 |  | ~1 |
